± gives the standard deviation of the averaged measurements.
Assay: total protein half-life in vivo (active degradation + dilution); higher = more stable protein
[1] = E. coli NCM3722 delta-clpP delta-lon delta-hslV, growth: N-lim chemostat, doubling time 6 h
[2] = E. coli NCM3722 delta-hslV, growth: N-lim chemostat, doubling time 6 h
[3] = E. coli NCM3722 delta-lon, growth: N-lim chemostat, doubling time 6 h
[4] = E. coli NCM3722 delta-smpB, growth: N-lim chemostat, doubling time 6 h
[5] = wild type E. coli NCM3722, growth: C-lim chemostat, doubling time 3 h
[6] = wild type E. coli NCM3722, growth: C-lim chemostat, doubling time 6 h
[7] = wild type E. coli NCM3722, growth: C-lim chemostat, doubling time 12 h
[8] = wild type E. coli NCM3722, growth: N-lim chemostat, doubling time 6 h
[9] = wild type E. coli NCM3722, growth: N-lim chemostat, doubling time 12 h
[10] = wild type E. coli NCM3722, growth: P-lim chemostat, doubling time 6 h
[11] = wild type E. coli NCM3722, growth: P-lim chemostat, doubling time 12 h
[12] = E. coli NCM3722 delta-clpP, growth: N-lim chemostat, doubling time 6 h

In the case of “MDKFDANRRKLLALGGVALGAAILPTPAFATLSTPRPRILTLNNLHTGESIKAEFFDGRGYIQEELAKLNHFFRDYRANKIKSIDPGLFDQLYRLQGLLGTRKPVQLISGYRSIDTNNELRARSRGVAKKSYHTKGQAMDFHIEGIALSNIRKAALSMRAGGVGYYPRSNFVHIDTGPARHW [P0AB06]”, the “total protein half-life in vivo” value [1] is reported as 3.83 ± 1.1 h, the “total protein half-life in vivo” value [2] is reported as 2.76 ± 2.8 h and the “total protein half-life in vivo” value [3] is reported as 1 ± 0.91 h. For the same sequence, the “total protein half-life in vivo” value [4] was 1.8 ± 0.088 h, the “total protein half-life in vivo” value [5] was 0.68 ± 0.53 h and the “total protein half-life in vivo” value [6] was 2.67 ± 0.29 h. The “total protein half-life in vivo” value [7] was 6.36 ± 2 h, the “total protein half-life in vivo” value [8] was 1.97 ± 0.11 h and the “total protein half-life in vivo” value [9] was 1.81 ± 1.2 h. The “total protein half-life in vivo” value [10] was 1.82 ± 0.81 h and the “total protein half-life in vivo” value [11] was 2.46 ± 0.46 h.

For “MDKIEVRGARTHNLKNINLVIPRDKLIVVTGLSGSGKSSLAFDTLYAEGQRRYVESLSAYARQFLSLMEKPDVDHIEGLSPAISIEQKSTSHNPRSTVGTITEIHDYLRLLFARVGEPRCPDHDVPLAAQTVSQMVDNVLSQPEGKRLMLLAPIIKERKGEHTKTLENLASQGYIRARIDGEVCDLSDPPKLELQKKHTIEVVVDRFKVRDDLTQRLAESFETALELSGGTAVVADMDDPKAEELLFSANFACPICGYSMRELEPRLFSFNNPAGACPTCDGLGVQQYFDPDRVIQNPELSLAGGAIRGWDRRNFYYFQMLKSLADHYKFDVEAPWGSLSANVHKVVLYGSGKENIEFKYMNDRGDTSIRRHPFEGVLHNMERRYKETESSAVREELAKFISNRPCASCEGTRLRREARHVYVENTPLPAISDMSIGHAMEFFNNLKLAGQRAKIAEKILKEIGDRLKFLVNVGLNYLTLSRSAETLSGGEAQRIRLASQIGAGLVGVMYVLDEPSIGLHQRDNERLLGTLIHLRDLGNTVIVVEHDEDAIRAADHVIDIGPGAGVHGGEVVAEGPLEAIMAVPESLTGQYMSGKRKIEVPKKRVPANPEKVLKLTGARGNNLKDVTLTLPVGLFTCITGVSGSGKSTLINDTLFPIAQRQLNGATIAEPAPYRDIQGLEHFDKVIDIDQSPIGRTPRSNPATYTGVFTPVRELFAGVPESRARGYTPGRFSFNVRGGRCEACQGDGVIKVEMHFLPDIYVPCDQCKGKRYNRETLEIKYKGKTIHEVLDMTIEEAREFFDAVPALARKLQTLMDVGLTYIRLGQSATTLSGGEAQRVKLARELSKRGTGQTLYILDEPTTGLHFADIQQLLDVLHKLRDQGNTIVVIEHNLDVIKTADWIVDLGPEGGSGGGEILVSGTPETVAECEASHTARFLKPML [P0A698]”, the “total protein half-life in vivo” value [1] was 6.85 ± 0.08 h, the “total protein half-life in vivo” value [12] was 6.52 ± 0.27 h and the “total protein half-life in vivo” value [2] was 6.32 ± 0.14 h. The “total protein half-life in vivo” value [3] was 6.4 ± 0.084 h, the “total protein half-life in vivo” value [4] was 5.66 ± 0.51 h and the “total protein half-life in vivo” value [5] was 3.21 ± 0.095 h. The “total protein half-life in vivo” value [6] was 6.19 ± 0.7 h, the “total protein half-life in vivo” value [7] was 12.1 ± 0.6 h and the “total protein half-life in vivo” value [8] was 6.24 ± 0.3 h. The “total protein half-life in vivo” value [9] was 12.7 ± 0.13 h, the “total protein half-life in vivo” value [10] was 6.273 ± 0.06 h and the “total protein half-life in vivo” value [11] was 13.6 ± 0.84 h.

With “MDKKQVTDLRSELLDSRFGAKSISTIAESKRFPLHEMRDDVAFQIINDELYLDGNARQNLATFCQTWDDENVHKLMDLSINKNWIDKEEYPQSAAIDLRCVNMVADLWHAPAPKNGQAVGTNTIGSSEACMLGGMAMKWRWRKRMEAAGKPTDKPNLVCGPVQICWHKFARYWDVELREIPMRPGQLFMDPKRMIEACDENTIGVVPTFGVTYTGNYEFPQPLHDALDKFQADTGIDIDMHIDAASGGFLAPFVAPDIVWDFRLPRVKSISASGHKFGLAPLGCGWVIWRDEEALPQELVFNVDYLGGQIGTFAINFSRPAGQVIAQYYEFLRLGREGYTKVQNASYQVAAYLADEIAKLGPYEFICTGRPDEGIPAVCFKLKDGEDPGYTLYDLSERLRLRGWQVPAFTLGGEATDIVVMRIMCRRGFEMDFAELLLEDYKASLKYLSDHPKLQGIAQQNSFKHT” the “total protein half-life in vivo” value [1] was 6.14 ± 0.21 h, the “total protein half-life in vivo” value [12] was 6.13 ± 0.6 h and the “total protein half-life in vivo” value [3] was 6.24 ± 0.063 h. For the same sequence, the “total protein half-life in vivo” value [4] was 5.24 ± 0.19 h, the “total protein half-life in vivo” value [5] was 3.41 h and the “total protein half-life in vivo” value [6] was 6.25 ± 0.14 h. The “total protein half-life in vivo” value [8] was 5.7107 ± 0.00073 h, the “total protein half-life in vivo” value [9] was 10.9 ± 0.24 h and the “total protein half-life in vivo” value [10] was 5.97 ± 0.86 h. For the same sequence, the “total protein half-life in vivo” value [11] was 13.1 ± 0.33 h.

In the case of “MDKQSLHETAKRLALELPFVELCWPFGPEFDVFKIGGKIFMLSSELRGVPFINLKSDPQKSLLNQQIYPSIKPGYHMNKKHWISVYPGEEISEALLRDLINDSWNLVVDGLAKRDQKRVRPG [P0AAT2]”, the “total protein half-life in vivo” value [1] is reported as 5.54 ± 0.35 h, the “total protein half-life in vivo” value [12] is reported as 6.23 h and the “total protein half-life in vivo” value [2] is reported as 5.97 ± 0.5 h. For the same sequence, the “total protein half-life in vivo” value [3] was 6.9 ± 0.29 h, the “total protein half-life in vivo” value [4] was 5.28 ± 0.71 h and the “total protein half-life in vivo” value [5] was 3.35 ± 0.7 h. For the same sequence, the “total protein half-life in vivo” value [6] was 5.17 ± 0.11 h, the “total protein half-life in vivo” value [7] was 11.2 ± 0.26 h and the “total protein half-life in vivo” value [8] was 4.78 ± 0.46 h. The “total protein half-life in vivo” value [9] was 10.1 ± 2.1 h, the “total protein half-life in vivo” value [10] was 4.72 ± 1.1 h and the “total protein half-life in vivo” value [11] was 10.6 ± 0.46 h.

In the case of “MDKSKRHLAWWVVGLLAVAAIVAWWLLRPAGVPEGFAVSNGRIEATEVDIASKIAGRIDTILVKEGKFVREGEVLAKMDTRVLQEQRLEAIAQIKEAQSAVAAAQALLEQRQSETRAAQSLVNQRQAELDSVAKRHTRSRSLAQRGAISAQQLDDDRAAAESARAALESAKAQVSASKAAIEAARTNIIQAQTRVEAAQATERRIAADIDDSELKAPRDGRVQYRVAEPGEVLAAGGRVLNMVDLSDVYMTFFLPTEQAGTLKLGGEARLILDAAPDLRIPATISFVASVAQFTPKTVETSDERLKLMFRVKARIPPELLQQHLEYVKTGLPGVAWVRVNEELPWPDDLVVRLPQ”, the “total protein half-life in vivo” value [1] is reported as 7.13 ± 1.2 h, the “total protein half-life in vivo” value [12] is reported as 6.23 ± 0.4 h and the “total protein half-life in vivo” value [2] is reported as 6.68 ± 0.17 h. The “total protein half-life in vivo” value [3] was 6.78 ± 0.59 h, the “total protein half-life in vivo” value [4] was 5.93 ± 0.0093 h and the “total protein half-life in vivo” value [5] was 3.27 ± 0.32 h. For the same sequence, the “total protein half-life in vivo” value [6] was 6.21 ± 0.2 h, the “total protein half-life in vivo” value [7] was 13 ± 1 h and the “total protein half-life in vivo” value [8] was 6.37 ± 0.43 h. For the same sequence, the “total protein half-life in vivo” value [9] was 13.5 ± 1.4 h, the “total protein half-life in vivo” value [10] was 6.03 ± 0.35 h and the “total protein half-life in vivo” value [11] was 12.9 ± 0.49 h.

For “MDLLYRVKTLWAALRGNHYTWPAIDITLPGNRHFHLIGSIHMGSHDMAPLPTRLLKKLKNADALIVEADVSTSDTPFANLPACEALEERISEEQLQNLQHISQEMGISPSLFSTQPLWQIAMVLQATQAQKLGLRAEYGIDYQLLQAAKQQHKPVIELEGAENQIAMLLQLPDKGLALLDDTLTHWHTNARLLQQMMSWWLNAPPQNNDITLPNTFSQSLYDVLMHQRNLAWRDKLRAMPPGRYVVAVGALHLYGEGNLPQMLR”, the “total protein half-life in vivo” value [1] was 5.23 h, the “total protein half-life in vivo” value [12] was 5.02 h and the “total protein half-life in vivo” value [2] was 5.67 h. The “total protein half-life in vivo” value [3] was 5.61 h, the “total protein half-life in vivo” value [4] was 5.46 ± 0.086 h and the “total protein half-life in vivo” value [5] was 2.97 ± 0.043 h. The “total protein half-life in vivo” value [7] was 11.5 h, the “total protein half-life in vivo” value [8] was 5.74 ± 0.45 h and the “total protein half-life in vivo” value [9] was 12.5 h. For the same sequence, the “total protein half-life in vivo” value [10] was 5.75 ± 0.62 h and the “total protein half-life in vivo” value [11] was 10.6 ± 0.083 h.

With “MDLNTLISQYGYAALVIGSLAEGETVTLLGGVAAHQGLLKFPLVVLSVALGGMIGDQVLYLCGRRFGGKLLRRFSKHQDKIERAQKLIQRHPYLFVIGTRFMYGFRVIGPTLIGASQLPPKIFLPLNILGAFAWALIFTTIGYAGGQVIAPWLHNLDQHLKHWVWLILVVVLVVGVRWWLKRRGKKKPDHQA” the “total protein half-life in vivo” value [1] was 6.78 h, the “total protein half-life in vivo” value [6] was 5.72 h and the “total protein half-life in vivo” value [9] was 10.9 h. For the same sequence, the “total protein half-life in vivo” value [10] was 6.18 h and the “total protein half-life in vivo” value [11] was 13.6 h.

In the case of “MDLRDLKTFLHLAESRHFGRSARAMHVSPSTLSRQIQRLEEDLGQPLFVRDNRTVTLTEAGEELRVFAQQTLLQYQQLRHTIDQQGPSLSGELHIFCSVTAAYSHLPPILDRFRAEHPSVEIKLTTGDAADAMEKVVTGEADLAIAGKPETLPGAVAFSMLENLAVVLIAPALPCPVRNQVSVEKPDWSTVPFIMADQGPVRRRIELWFRRNKISNPMIYATVGGHEAMVSMVALGCGVALLPEVVLENSPEPVRNRVMILERSDEKTPFELGVCAQKKRLHEPLIEAFWKILPNHK”, the “total protein half-life in vivo” value [1] is reported as 6.95 ± 1.4 h, the “total protein half-life in vivo” value [12] is reported as 6.14 ± 0.2 h and the “total protein half-life in vivo” value [2] is reported as 5.87 ± 0.32 h. For the same sequence, the “total protein half-life in vivo” value [3] was 6.22 ± 0.23 h, the “total protein half-life in vivo” value [4] was 6.35 ± 1.1 h and the “total protein half-life in vivo” value [5] was 2.78 ± 0.13 h. For the same sequence, the “total protein half-life in vivo” value [6] was 5.47 ± 0.66 h, the “total protein half-life in vivo” value [7] was 11.4 ± 3.2 h and the “total protein half-life in vivo” value [8] was 5.9 ± 0.012 h. For the same sequence, the “total protein half-life in vivo” value [9] was 10.9 ± 1.1 h, the “total protein half-life in vivo” value [10] was 5.48 ± 0.1 h and the “total protein half-life in vivo” value [11] was 11 ± 0.99 h.
